Laboratory results as given in PMC9531584 (Nature structural & molecular biology, 2022).

B1: Torpedo californica muscle-type nicotinic acetylcholine receptor β subunit (natural protein, UniProt P02712 25-493, looked up)
chain: SVMEDTLLSVLFETYNPKVRPAQTVGDKVTVRVGLTLTNLLILNEKIEEMTTNVFLNLAWTDYRLQWDPAAYEGIKDLRIPSSDVWQPDIVLMNNNDGSFEITLHVNVLVQHTGAVSWQPSAIYRSSCTIKVMYFPFDWQNCTMVFKSYTYDTSEVTLQHALDAKGEREVKEIVINKDAFTENGQWSIEHKPSRKNWRSDDPSYEDVTFYLIIQRKPLFYIVYTIIPCILISILAILVFYLPPDAGEKMSLSISALLAVTVFLLLLADKVPETSLSVPIIIRYLMFIMILVAFSVILSVVVLNLHHRSPNTHTMPNWIRQIFIETLPPFLWIQRPVTTPSPDSKPTIISRANDEYFIRKPAGDFVCPVDNARVAVQPERLFSEMKWHLNGLTQPVTLPQDLKEAVEAIKYIAEQLESASEFDDLKKDWQYVAMVADRLFLYVFFVICSIGTFSIFLDASHNVPPDNPFA

Experiments:
[1] = biological target: T1, Torpedo californica muscle-type nicotinic acetylcholine receptor δ subunit (Torpedo californica (Tetronarce …, UniProt P02718 22-522)); experiment: cryo-EM structure
T1 sequence (looked up): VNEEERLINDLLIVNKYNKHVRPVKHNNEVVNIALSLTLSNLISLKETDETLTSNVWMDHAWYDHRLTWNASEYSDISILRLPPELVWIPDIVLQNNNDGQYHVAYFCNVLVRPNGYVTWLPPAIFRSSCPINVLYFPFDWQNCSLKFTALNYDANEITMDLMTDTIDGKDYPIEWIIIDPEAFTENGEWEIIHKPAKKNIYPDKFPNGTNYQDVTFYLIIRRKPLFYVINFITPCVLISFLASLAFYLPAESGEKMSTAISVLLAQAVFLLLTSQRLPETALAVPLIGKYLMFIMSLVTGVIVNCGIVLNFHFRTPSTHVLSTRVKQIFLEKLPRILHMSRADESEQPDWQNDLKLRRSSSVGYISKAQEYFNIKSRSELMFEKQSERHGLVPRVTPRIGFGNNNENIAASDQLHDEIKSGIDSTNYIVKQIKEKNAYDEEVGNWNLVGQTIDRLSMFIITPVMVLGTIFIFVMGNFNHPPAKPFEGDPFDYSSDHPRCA

[2] = biological target: B1; experiment: cryo-EM structure

Row | Binder | binding result [1] | binding result [2]
1 | B1 | binds | –
2 | Torpedo californica muscle-type nicotinic acetylcholine receptor α subunit (natural protein, UniProt P02710 25-461, looked up) SEHETRLVANLLENYNKVIRPVEHHTHFVDITVGLQLIQLISVDEVNQIVETNVRLRQQWIDVRLRWNPADYGGIKKIRLPSDDVWLPDLVLYNNADGDFAIVHMTKLLLDYTGKIMWTPPAIFKSYCEIIVTHFPFDQQNCTMKLGIWTYDGTKVSISPESDRPDLSTFMESGEWVMKDYRGWKHWVYYTCCPDTPYLDITYHFIMQRIPLYFVVNVIIPCLLFSFLTGLVFYLPTDSGEKMTLSISVLLSLTVFLLVIVELIPSTSSAVPLIGKYMLFTMIFVISSIIITVVVINTHHRSPSTHTMPQWVRKIFIDTIPNVMFFSTMKRASKEKQENKIFADDIDISDISGKQVTGEVIFQTPLIKNPDVKSAIEGVKYIAEHMKSDEESSNAAEEWKYVAMVIDHILLCVFMLICIIGTVSVFAGRLIELSQEG | – | binds
